In data set [1] the target is T1, Mgm1 (truncated s-Mgm1) (Thermochaetoides thermophila, UniProt G0SGC7).
T1 sequence (G0SGC7 219-912): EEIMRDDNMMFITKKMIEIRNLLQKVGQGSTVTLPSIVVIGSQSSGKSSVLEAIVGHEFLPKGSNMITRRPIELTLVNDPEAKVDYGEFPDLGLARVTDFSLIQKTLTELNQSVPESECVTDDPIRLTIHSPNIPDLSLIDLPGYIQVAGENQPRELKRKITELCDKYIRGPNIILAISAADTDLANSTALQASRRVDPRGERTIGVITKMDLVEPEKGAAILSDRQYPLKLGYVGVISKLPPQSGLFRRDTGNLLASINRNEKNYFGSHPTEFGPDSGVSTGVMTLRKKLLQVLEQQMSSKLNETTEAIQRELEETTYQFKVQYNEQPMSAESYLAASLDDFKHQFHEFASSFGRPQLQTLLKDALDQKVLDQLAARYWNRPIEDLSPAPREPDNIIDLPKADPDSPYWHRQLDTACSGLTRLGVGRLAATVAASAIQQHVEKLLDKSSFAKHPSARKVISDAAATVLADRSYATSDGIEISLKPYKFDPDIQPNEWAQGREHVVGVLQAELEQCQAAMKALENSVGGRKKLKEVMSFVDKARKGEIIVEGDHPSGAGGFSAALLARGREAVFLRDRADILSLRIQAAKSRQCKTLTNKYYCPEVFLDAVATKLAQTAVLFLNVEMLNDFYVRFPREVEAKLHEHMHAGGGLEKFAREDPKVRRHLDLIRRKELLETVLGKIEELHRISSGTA
Description: isothermal titration calorimetry. It is filed as binding.

Data set [2] deals with the molecule itself. Description: AUC.
Data set [3] deals with the molecule itself. As to the kind of experiment: crystal structure.

With `Nc1nc2c(ncn2[C@@H]2O[C@H](COP(=O)(O)OP(=O)(O)OP(O)(O)=S)[C@@H](O)[C@H]2O)c(=O)[nH]1` [GTPγS], the Kd in data set [1] stood at 9 ± 3 µM.

B1: Chaetomium thermophilum Mgm1 (amino acids 219-912), truncated s-Mgm1 isoform (domain or fragment, UniProt G0SGC7 219-912, looked up)
chain: EEIMRDDNMMFITKKMIEIRNLLQKVGQGSTVTLPSIVVIGSQSSGKSSVLEAIVGHEFLPKGSNMITRRPIELTLVNDPEAKVDYGEFPDLGLARVTDFSLIQKTLTELNQSVPESECVTDDPIRLTIHSPNIPDLSLIDLPGYIQVAGENQPRELKRKITELCDKYIRGPNIILAISAADTDLANSTALQASRRVDPRGERTIGVITKMDLVEPEKGAAILSDRQYPLKLGYVGVISKLPPQSGLFRRDTGNLLASINRNEKNYFGSHPTEFGPDSGVSTGVMTLRKKLLQVLEQQMSSKLNETTEAIQRELEETTYQFKVQYNEQPMSAESYLAASLDDFKHQFHEFASSFGRPQLQTLLKDALDQKVLDQLAARYWNRPIEDLSPAPREPDNIIDLPKADPDSPYWHRQLDTACSGLTRLGVGRLAATVAASAIQQHVEKLLDKSSFAKHPSARKVISDAAATVLADRSYATSDGIEISLKPYKFDPDIQPNEWAQGREHVVGVLQAELEQCQAAMKALENSVGGRKKLKEVMSFVDKARKGEIIVEGDHPSGAGGFSAALLARGREAVFLRDRADILSLRIQAAKSRQCKTLTNKYYCPEVFLDAVATKLAQTAVLFLNVEMLNDFYVRFPREVEAKLHEHMHAGGGLEKFAREDPKVRRHLDLIRRKELLETVLGKIEELHRISSGTA
Take B1: binding in data set [2] was put at a Kd of 1 µM.

B2: Seleno-methionine substituted Chaetomium thermophilum Mgm1 (amino acids 219-912) (domain or fragment, UniProt G0SGC7 219-912, looked up)
chain: EEIMRDDNMMFITKKMIEIRNLLQKVGQGSTVTLPSIVVIGSQSSGKSSVLEAIVGHEFLPKGSNMITRRPIELTLVNDPEAKVDYGEFPDLGLARVTDFSLIQKTLTELNQSVPESECVTDDPIRLTIHSPNIPDLSLIDLPGYIQVAGENQPRELKRKITELCDKYIRGPNIILAISAADTDLANSTALQASRRVDPRGERTIGVITKMDLVEPEKGAAILSDRQYPLKLGYVGVISKLPPQSGLFRRDTGNLLASINRNEKNYFGSHPTEFGPDSGVSTGVMTLRKKLLQVLEQQMSSKLNETTEAIQRELEETTYQFKVQYNEQPMSAESYLAASLDDFKHQFHEFASSFGRPQLQTLLKDALDQKVLDQLAARYWNRPIEDLSPAPREPDNIIDLPKADPDSPYWHRQLDTACSGLTRLGVGRLAATVAASAIQQHVEKLLDKSSFAKHPSARKVISDAAATVLADRSYATSDGIEISLKPYKFDPDIQPNEWAQGREHVVGVLQAELEQCQAAMKALENSVGGRKKLKEVMSFVDKARKGEIIVEGDHPSGAGGFSAALLARGREAVFLRDRADILSLRIQAAKSRQCKTLTNKYYCPEVFLDAVATKLAQTAVLFLNVEMLNDFYVRFPREVEAKLHEHMHAGGGLEKFAREDPKVRRHLDLIRRKELLETVLGKIEELHRISSGTA
modifications: seleno-methionine substituted for methionine
Consider B2, for which the binding result in data set [3] is given as “binds”.

For the origin of these results see publication PMC7116848 (Nature, 2019).
